Consider one molecule from article PMC12871931, “The importin‐alpha superfamily engages in ethylene signaling by shuttling [sequence] INSENSITIVE 2 from the endoplasmic reticulum to the nucleus” (The Febs Journal, 2025).

In this assay the test system is N. benthamiana epidermal leaf cells. Put plainly: Confocal fluorescence microscopy, subcellular localization. Format: cell-based. The note with it: Cerulean fusion, transiently transformed N. benthamiana epidermal leaf cells. On the procedure: A modified version of a previously described procedure was used for the transient transformation of N. benthamiana. An overnight culture of agrobacteria was inoculated in DYT and incubated at 28°C one day before infiltration. Bacteria were then centrifuged at 4000 g and resuspended in infiltration medium (5% (w/v) Saccharose; 0.01% (w/v) MgSO4; 0.01% (w/v) Glucose; Acetosyringone 450 μM) to an OD600 of 0.4–0.8. Resuspended bacteria were kept on ice for 1–2 h prior to infiltration. For co‐infiltration, bacteria solutions were mixed in equal quantities, and Agrobacterium strain GV3101:p19 expressing the p19 silencing inhibitor was added to each mix. Infiltration of the bacteria solution was performed with a 1 mL syringe onto the abaxial side of 3‐ to 4‐week‐old plants. Plants were kept under continuous light before microscopy analysis. For ß‐estradiol inducible constructs, plants were sprayed on the abaxial side of infiltrated leaves with an estradiol solution (ß‐estradiol 20 μM; Tween‐20 0.1% (w/v)) prior to imaging.
For fluorescence imaging, a Zeiss LSM 780 confocal microscope (40× water immersion objective, Zeiss C‐PlanApo, NA 1.2) was used. YFP was excited at 514 nm and Cerulean at 458 nm. Signal recording of each fluorophore was done within its maximum emission peak while avoiding auto‐fluorescence above 650 nm. […]

B1: EIN2C^479–1294: C‐terminal part of EIN2 fused to Cerulean (CER), FRET donor (protein)
chain: NALSYPSVQEEEIERTETRRNEDESIVRLESRVKDQLDTTSVTSSVYDLPENILMTDQEIRSSPPEERELDVKYSTSQVSSLKEDSDVKEQSVLQSTVVNEVSDKDLIVETKMAKIEPMSPVEKIVSMENNSKFIEKDVEGVSWETEEATKAAPTSNFTVGSDGPPSFRSLSGEGGSGTGSLSRLQGLGRAARRHLSAILDEFWGHLYDFHGQLVAEARAKKLDQLFGTDQKSASSMKADSFGKDISSGYCMSPTAKGMDSQMTSSLYDSLKQQRTPGSIDSLYGLQRGSSPSPLVNRMQMLGAYGNTTNNNNAYELSERRYSSLRAPSSSEGWEHQQPATVHGYQMKSYVDNLAKERLEALQSRGEIPTSRSMALGTLSYTQQLALALKQKSQNGLTPGPAPGFENFAGSRSISRQSERSYYGVPSSGNTDTVGAAVANEKKYSSMPDISGLSMSARNMHLPNNKSGYWDPSSGGGGYGASYGRLSNESSLYSNLGSRVGVPSTYDDISQSRGGYRDAYSLPQSATTGTGSLWSRQPFEQFGVAERNGAVGEELRNRSNPINIDNNASSNVDAEAKLLQSFRHCILKLIKLEGSEWLFGQSDGVDEELIDRVAAREKFIYEAEAREINQVGHMGEPLISSVPNCGDGCVWRADLIVSFGVWCIHRVLDLSLMESRPELWGKYTYVLNRLQGVIDPAFSKLRTPMTPCFCLQIPASHQRASPTSANGMLPPAAKPAKGKCTTAVTLLDLIKDVEMAISCRKGRTGTAAGDVAFPKGKENLASVLKRYKRRLSNKPVGMNQDGPGSRKNVTAYGSLG
modifications: left off: Cerulean, end not stated, kept
notes: C‐terminal part of EIN2 fused to Cerulean (CER), FRET donor
Consider B1, for which the subcellular localization entry is “localized in the nucleus, ER, and cytoplasm”.
